Measured values as given in patent US20100086540A1.
pIC50, pKd: −log10 of the molar value.

What was measured:
[1] = biological target: isolated domain III of sEGFR (sEGFRd3) (UniProt P00533); test: SPR (BIAcore 3000), sEGFRd3 passed over immobilized Fab11F8, equilibrium analysis
[2] = biological target: soluble extracellular domain of EGFR (sEGFR) (UniProt P00533); test: SPR competition: Fab11F8 added to 600 nM sEGFR, passed over immobilized EGF
[3] = biological target: soluble extracellular domain of EGFR (sEGFR) (UniProt P00533); test: SPR (BIAcore 3000), sEGFR passed over immobilized Fab11F8, equilibrium response, one-site Langmuir fit

Sequence of antibody 11F8 Fab fragment (VH): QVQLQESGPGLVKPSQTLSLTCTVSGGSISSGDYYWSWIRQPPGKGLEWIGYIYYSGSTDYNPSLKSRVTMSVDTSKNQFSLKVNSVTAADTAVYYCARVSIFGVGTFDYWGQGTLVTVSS
Sequence of antibody 11F8 Fab fragment (VL): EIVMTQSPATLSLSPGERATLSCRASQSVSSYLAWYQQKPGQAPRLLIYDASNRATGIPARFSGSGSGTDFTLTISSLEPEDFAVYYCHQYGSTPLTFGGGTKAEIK

antibody 11F8 Fab fragment showed a pKd [1] of 9.00, a pIC50 [2] of 7.00 and a pKd [3] of 8.48.
